From the supplement of paper PMC5998384 come the findings set out here.

For data set [1], the system named is HeLa Kyoto. Nature of the data set: melting temperature (median over replicates), in situ; higher = more thermally stable.
Data set [2] relates to HeLa Kyoto. Nature of the data set: solubility in G1/S (NP-40 vs SDS abundance) (log2 ratio); higher = more soluble. The note with it: cell cycle stage: G1/S.
Data set [3] deals with HeLa Kyoto. Nature of the data set: thermal stability score vs G1/S (z-score of summed log2 fold changes over temperatures); higher = more thermally stable than in G1/S.
Data set [4] relates to HeLa Kyoto. Nature of the data set: solubility change mitosis vs G1/S (difference of NP-40 vs SDS log2 ratios) (log2 ratio difference); higher = more soluble in mitosis.
[5] abbreviates: cell cycle stage: early G1 (4.5 h after nocodazole release).
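For melting temperature (median over replicates), in situ in this document: HeLa Kyoto cells synchronized by double thymidine or nocodazole block, proteins quantified by TMT10plex mass spectrometry, three independent biological replicates.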
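For solubility change mitosis vs G1/S (difference of NP-40 vs SDS log2 ratios) in this document: synchronized HeLa Kyoto cells (double thymidine block for G1/S, nocodazole release for mitosis), protein amounts in NP-40 versus SDS lysates quantified by mass spectrometry, three biological replicates.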
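For solubility in G1/S (NP-40 vs SDS abundance) in this document: HeLa Kyoto cells arrested at G1/S by double thymidine block, proteins quantified by TMT10plex mass spectrometry in mild NP-40 versus SDS extracts, three biological replicates.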
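For thermal stability score vs G1/S (z-score of summed log2 fold changes over temperatures) in this document: synchronized HeLa Kyoto cells, proteins quantified by TMT10plex mass spectrometry, three biological replicates, mitosis taken 0.5 h after nocodazole release, G1/S directly after double thymidine block.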

In the case of LRBA, the melting temperature in data set [1] (cell cycle stage: G1/S) and in data set [1] (cell cycle stage: mitosis) was 51.2 °C in each case. Moreover, the “solubility in G1/S (log2)” value in data set [2] is -0.115. The thermal stability score in data set [3] (setting [5]) was -0.555; in data set [3] (cell cycle stage: mitosis) it was -0.768. In data set [4], the “solubility change mitosis (log2)” value was -0.148.
In the case of “MNIRNARPEDLMNMQHCNLLCLPENYQMKYYFYHGLSWPQLSYIAEDENGKIVGYVLAKMEEDPDDVPHGHITSLAVKRSHRRLGLAQKLMDQASRAMIENFNAKYVSLHVRKSNRAALHLYSNTLNFQISEVEPKYYADGEDAYAMKRDLTQMADELRRHLELKEKGRHVVLGAIENKVESKGNSPPSSGEACREEKGLAAEDSGGDSKDLSEVSETTESTDVKDSSEASDSAS [NAA10]”, the results for the melting temperature in data set [1] (cell cycle stage: G1/S) and in data set [1] (cell cycle stage: mitosis) were 53.4 °C and 53.1 °C, respectively. Moreover, the “solubility in G1/S (log2)” value in data set [2] came out at 0.263. The thermal stability score is -0.13 in data set [3] (setting [5]) and -1.02 in data set [3] (cell cycle stage: mitosis). In addition, the “solubility change mitosis (log2)” value in data set [4] was -0.0427.
Take “MPVFHTRTIESILEPVAQQISHLVIMHEEGEVDGKAIPDLTAPVAAVQAAVSNLVRVGKETVQTTEDQILKRDMPPAFIKVENACTKLVQAAQMLQSDPYSVPARDYLIDGSRGILSGTSDLLLTFDEAEVRKIIRVCKGILEYLTVAEVVETMEDLVTYTKNLGPGMTKMAKMIDERQQELTHQEHRVMLVNSMNTVKELLPVLISAMKIFVTTKNSKNQGIEEALKNRNFTVEKMSAEINEIIRVLQLTSWDEDAWASKDTEAMKRALASIDSKLNQAKGWLRDPSASPGDAGEQAIRQILDEAGKVGELCAGKERREILGTCKMLGQMTDQVADLRARGQGSSPVAMQKAQQVSQGLDVLTAKVENAARKLEAMTNSKQSIAKKIDAAQNWLADPNGGPEGEEQIRGALAEARKIAELCDDPKERDDILRSLGEISALTSKLADLRRQGKGDSPEARALAKQVATALQNLQTKTNRAVANSRPAKAAVHLEGKIEQAQRWIDNPTVDDRGVGQAAIRGLVAEGHRLANVMMGPYRQDLLAKCDRVDQLTAQLADLAARGEGESPQARALASQLQDSLKDLKARMQEAMTQEVSDVFSDTTTPIKLLAVAATAPPDAPNREEVFDERAANFENHSGKLGATAEKAAAVGTANKSTVEGIQASVKTARELTPQVVSAARILLRNPGNQAAYEHFETMKNQWIDNVEKMTGLVDEAIDTKSLLDASEEAIKKDLDKCKVAMANIQPQMLVAGATSIARRANRILLVAKREVENSEDPKFREAVKAASDELSKTISPMVMDAKAVAGNISDPGLQKSFLDSGYRILGAVAKVREAFQPQEPDFPPPPPDLEQLRLTDELAPPKPPLPEGEVPPPRPPPPEEKDEEFPEQKAGEVINQPMMMAARQLHDEARKWSSKPGIPAAEVGIGVVAEADAADAAGFPVPPDMEDDYEPELLLMPSNQPVNQPILAAAQSLHREATKWSSKGNDIIAAAKRMALLMAEMSRLVRGGSGTKRALIQCAKDIAKASDEVTRLAKEVAKQCTDKRIRTNLLQVCERIPTISTQLKILSTVKATMLGRTNISDEESEQATEMLVHNAQNLMQSVKETVREAEAASIKIRTDAGFTLRWVRKTPWYQ [VCL]”: the melting temperature came out at 56.4 °C in data set [1] (cell cycle stage: G1/S) and 55.4 °C in data set [1] (cell cycle stage: mitosis). Moreover, the “solubility in G1/S (log2)” value in data set [2] is 0.182. The thermal stability score is -1.64 in data set [3] (setting [5]) and -1.78 in data set [3] (cell cycle stage: mitosis). The “solubility change mitosis (log2)” value in data set [4] was -0.0931.
Take “MSLKPRVVDFDETWNKLLTTIKAVVMLEYVERATWNDRFSDIYALCVAYPEPLGERLYTETKIFLENHVRHLHKRVLESEEQVLVMYHRYWEEYSKGADYMDCLYRYLNTQFIKKNKLTEADLQYGYGGVDMNEPLMEIGELALDMWRKLMVEPLQAILIRMLLREIKNDRGGEDPNQKVIHGVINSFVHVEQYKKKFPLKFYQEIFESPFLTETGEYYKQEASNLLQESNCSQYMEKVLGRLKDEEIRCRKYLHPSSYTKVIHECQQRMVADHLQFLHAECHNIIRQEKKNDMANMYVLLRAVSTGLPHMIQELQNHIHDEGLRATSNLTQENMPTLFVESVLEVHGKFVQLINTVLNGDQHFMSALDKALTSVVNYREPKSVCKAPELLAKYCDNLLKKSAKGMTENEVEDRLTSFITVFKYIDDKDVFQKFYARMLAKRLIHGLSMSMDSEEAMINKLKQACGYEFTSKLHRMYTDMSVSADLNNKFNNFIKNQDTVIDLGISFQIYVLQAGAWPLTQAPSSTFAIPQELEKSVQMFELFYSQHFSGRKLTWLHYLCTGEVKMNYLGKPYVAMVTTYQMAVLLAFNNSETVSYKELQDSTQMNEKELTKTIKSLLDVKMINHDSEKEDIDAESSFSLNMNFSSKRTKFKITTSMQKDTPQEMEQTRSAVDEDRKMYLQAAIVRIMKARKVLRHNALIQEVISQSRARFNPSISMIKKCIEVLIDKQYIERSQASADEYSYVA [CUL2]”: the figures for the melting temperature in data set [1] (cell cycle stage: G1/S) and in data set [1] (cell cycle stage: mitosis) were 54.1 °C and 53.6 °C, respectively. The “solubility in G1/S (log2)” value in data set [2] was -0.219. Besides, the values for the thermal stability score in data set [3] (setting [5]) and in data set [3] (cell cycle stage: mitosis) were -0.0958 and -0.6, respectively. Further, the “solubility change mitosis (log2)” value in data set [4] was -0.148.
On to “MKMAAPTANKAASLGCNNKPAFPELDFRSGARVEELNKLIQEFTKHDQREYDDQRALEIHTAKDFIFSMLGMVQKLDQKLPVANEYLLLSGGVREGVVDLDLDELNVYARGTDYDMDFTLLVPALKLHDRNQPVTLDMRHSALCHSWLSLRLFDEGTISKWKDCCTIVDHINGATNYFFSPTKVADWFYDSISIVLSEIQKKPQRGMPKVEKVEKNGTIISIILGVGSSRMLYDIVPVVSFKGWPAVAQSWLMENHFWDGKITEEEVISGFYLVPACSYKGKKDNEWRLSFARSEVQLKKCISSSLMQAYQACKAIIIKLLSRPKAISPYHLRSMMLWACDRLPANYLAQEDYAAHFLLGLIDDLQHCLVNKMCPNYFIPQCNMLEHLSEETVMLHARKLSSVRSDPAEHLRTAIEHVKAANRLTLELQRRGSTTSIPSPQSDGGDPNQPDDRLAKKLQQLVTENPGKSISVFINPDDVTRPHFRIDDKFF [MB21D2]”, for which the melting temperature is 56.3 °C in data set [1] (cell cycle stage: G1/S) and 56.5 °C in data set [1] (cell cycle stage: mitosis). Besides, the “solubility in G1/S (log2)” value in data set [2] turned out to be 0.0815. Further, the results for the thermal stability score in data set [3] (setting [5]) and in data set [3] (cell cycle stage: mitosis) were 1.1 and -0.608, respectively. Moreover, in data set [4], the “solubility change mitosis (log2)” value was -0.0032.
